Reference: patent US20030100069A1 (Human Genome Sciences, published 2003)

T1: endogenous TRAF2 (of HeLa and 293 cells) (human, UniProt Q12933 2-501)
T1 construct: 293 is called a human embryonic kidney cell line; HeLa is a human line; Detected by western blot with anti-TRAF2 polyclonal antibodies; also called TNF receptor-associated factor 2
T1 sequence (looked up): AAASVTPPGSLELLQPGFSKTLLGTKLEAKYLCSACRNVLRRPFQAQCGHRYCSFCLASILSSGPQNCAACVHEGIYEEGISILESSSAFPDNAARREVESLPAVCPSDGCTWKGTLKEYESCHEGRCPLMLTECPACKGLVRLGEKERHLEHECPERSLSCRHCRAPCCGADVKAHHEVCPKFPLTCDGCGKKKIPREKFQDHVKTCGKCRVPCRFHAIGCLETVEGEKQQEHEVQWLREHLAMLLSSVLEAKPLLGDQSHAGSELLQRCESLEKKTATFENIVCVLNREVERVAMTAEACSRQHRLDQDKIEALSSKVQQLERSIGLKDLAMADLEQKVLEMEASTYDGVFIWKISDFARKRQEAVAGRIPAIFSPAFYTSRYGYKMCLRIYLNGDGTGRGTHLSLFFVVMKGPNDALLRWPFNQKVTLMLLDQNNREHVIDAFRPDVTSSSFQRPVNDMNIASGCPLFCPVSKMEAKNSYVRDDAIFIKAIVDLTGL

T2: F-TR8-615 (FLAG epitope-tagged TR8, residues 33-615 of FIGS. 1A-C) (human) (UniProt Q9Y6Q6)
T2 sequence: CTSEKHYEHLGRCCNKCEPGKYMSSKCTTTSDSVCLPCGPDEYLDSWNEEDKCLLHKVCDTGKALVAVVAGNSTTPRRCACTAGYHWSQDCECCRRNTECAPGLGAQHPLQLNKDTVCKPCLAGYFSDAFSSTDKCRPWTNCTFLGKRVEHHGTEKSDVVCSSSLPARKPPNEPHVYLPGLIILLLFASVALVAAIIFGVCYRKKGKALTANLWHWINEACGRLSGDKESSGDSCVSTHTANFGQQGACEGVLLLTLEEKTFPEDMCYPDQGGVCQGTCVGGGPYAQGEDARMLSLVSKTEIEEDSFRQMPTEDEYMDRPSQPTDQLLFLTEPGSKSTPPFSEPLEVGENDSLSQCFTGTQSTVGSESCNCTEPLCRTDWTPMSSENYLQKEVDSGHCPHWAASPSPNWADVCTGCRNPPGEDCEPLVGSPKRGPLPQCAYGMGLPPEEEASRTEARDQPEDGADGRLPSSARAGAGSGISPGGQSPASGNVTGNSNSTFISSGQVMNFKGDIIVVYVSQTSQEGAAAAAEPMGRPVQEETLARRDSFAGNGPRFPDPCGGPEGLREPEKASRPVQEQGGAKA


biological target: T1, endogenous TRAF2 (of HeLa and 293 cells); experiment: anti-FLAG co-immunoprecipitation from HeLa and 293 lysates, anti-TRAF2 western blot
Experimental: Immunoprecipitations and JNK Kinase Assays—From transient transfected cells, lysates were prepared and immunoprecipitated using anti-FLAG-conjugated agarose or anti-JNK1 and protein A/G sepharose for 1 hr. Where indicated, ³⁵S-labeled proteins were added to the lysate prior to immunoprecipitation. Beads were collected by centrifugation and washed four times in lysis buffer followed by two washes in kinase buffer (20 mM TRIS, pH 8, 50 mM NaCl, and 1 mM DTT). For coimmunoprecipation, proteins were eluted in SDS-sample buffer, boiled, and subjected to SDS-PAGE. Analysis of JNK activity was performed using exogenously added GST-Jun(1-79) as a substrate as previously described (Haridas et al., J. Immunol. 160:3152-3162 (1998)). Quantitation of JNK activity and ³⁵S-labeled TRAF binding was analyzed using a PhosphoImager and Imagequant Software (Molecular Dynamics, Sunnyvale, Calif.).
TRAF2, TRAF5, and TRAF6 Interact with the C-Terminus of TR8—Since most of the TNFR family members utilize TRAFs as signaling components and that TR8 contains putative TRAF binding domains, we examined the ability for TR8 to interact with various TRAFs. […] After 24-36 hr, cell lysates were prepared and epitope-tagged receptors were immunoprecipitated with anti-FLAG conjugated-agarose. Coprecipitation of endogenous TRAF2 was detected by western blotting with anti-TRAF2 polyclonal antibodies. […] Membranes were also probed with anti-FLAG to insure precipitation of epitope-tagged receptors (data not shown).

Chain of in vitro translated 35S-labeled TRAF5 (O00463 whole entry): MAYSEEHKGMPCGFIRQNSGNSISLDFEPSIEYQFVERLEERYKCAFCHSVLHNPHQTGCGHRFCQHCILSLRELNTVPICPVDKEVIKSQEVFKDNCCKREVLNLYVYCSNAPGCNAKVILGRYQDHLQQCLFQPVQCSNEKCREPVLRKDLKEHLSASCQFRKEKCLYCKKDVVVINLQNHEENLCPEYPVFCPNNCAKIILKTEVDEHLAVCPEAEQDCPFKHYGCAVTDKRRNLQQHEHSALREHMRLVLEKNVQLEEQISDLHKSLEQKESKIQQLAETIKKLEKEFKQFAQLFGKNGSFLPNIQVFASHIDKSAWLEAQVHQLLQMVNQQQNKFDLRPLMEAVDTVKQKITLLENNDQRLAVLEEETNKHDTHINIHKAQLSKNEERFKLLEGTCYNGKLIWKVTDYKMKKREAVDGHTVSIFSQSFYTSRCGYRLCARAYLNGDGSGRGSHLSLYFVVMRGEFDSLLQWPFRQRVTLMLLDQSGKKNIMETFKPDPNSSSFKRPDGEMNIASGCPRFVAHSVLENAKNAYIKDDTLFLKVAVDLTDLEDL

| binding result | Molecule |
| --- | --- |
| no binding | F-TR8-427 (FLAG-tagged TR8 C-terminal deletion lacking 188 amino acids) (receptor, not shown: small tags and cut ends, The C-terminal limit is inferred from the construct name and the stated deletion of 188 residues; also called F-TR8 deletion mutant) CTSEKHYEHLGRCCNKCEPGKYMSSKCTTTSDSVCLPCGPDEYLDSWNEEDKCLLHKVCDTGKALVAVVAGNSTTPRRCACTAGYHWSQDCECCRRNTECAPGLGAQHPLQLNKDTVCKPCLAGYFSDAFSSTDKCRPWTNCTFLGKRVEHHGTEKSDVVCSSSLPARKPPNEPHVYLPGLIILLLFASVALVAAIIFGVCYRKKGKALTANLWHWINEACGRLSGDKESSGDSCVSTHTANFGQQGACEGVLLLTLEEKTFPEDMCYPDQGGVCQGTCVGGGPYAQGEDARMLSLVSKTEIEEDSFRQMPTEDEYMDRPSQPTDQLLFLTEPGSKSTPPFSEPLEVGENDSLSQCFTGTQSTVGSESCNCTEPLCRTDWTPMSSENYLQKEVDS |
| no binding | F-TR8-330 (FLAG-tagged TR8 C-terminal deletion lacking 285 amino acids) (receptor, not shown: small tags and cut ends, The C-terminal limit is inferred from the construct name and the stated deletion of 285 residues; also called F-TR8 deletion mutant) CTSEKHYEHLGRCCNKCEPGKYMSSKCTTTSDSVCLPCGPDEYLDSWNEEDKCLLHKVCDTGKALVAVVAGNSTTPRRCACTAGYHWSQDCECCRRNTECAPGLGAQHPLQLNKDTVCKPCLAGYFSDAFSSTDKCRPWTNCTFLGKRVEHHGTEKSDVVCSSSLPARKPPNEPHVYLPGLIILLLFASVALVAAIIFGVCYRKKGKALTANLWHWINEACGRLSGDKESSGDSCVSTHTANFGQQGACEGVLLLTLEEKTFPEDMCYPDQGGVCQGTCVGGGPYAQGEDARMLSLVS |
| no binding | F-TR8-530 (FLAG-tagged TR8 C-terminal deletion lacking 85 amino acids) (receptor, not shown: small tags and cut ends, also called F-TR8 deletion mutant) CTSEKHYEHLGRCCNKCEPGKYMSSKCTTTSDSVCLPCGPDEYLDSWNEEDKCLLHKVCDTGKALVAVVAGNSTTPRRCACTAGYHWSQDCECCRRNTECAPGLGAQHPLQLNKDTVCKPCLAGYFSDAFSSTDKCRPWTNCTFLGKRVEHHGTEKSDVVCSSSLPARKPPNEPHVYLPGLIILLLFASVALVAAIIFGVCYRKKGKALTANLWHWINEACGRLSGDKESSGDSCVSTHTANFGQQGACEGVLLLTLEEKTFPEDMCYPDQGGVCQGTCVGGGPYAQGEDARMLSLVSKTEIEEDSFRQMPTEDEYMDRPSQPTDQLLFLTEPGSKSTPPFSEPLEVGENDSLSQCFTGTQSTVGSESCNCTEPLCRTDWTPMSSENYLQKEVDSGHCPHWAASPSPNWADVCTGCRNPPGEDCEPLVGSPKRGPLPQCAYGMGLPPEEEASRTEARDQPEDGADGRLPSSARAGAGSGISPGGQSPASGNVTGNSNS |

biological target: T2, F-TR8-615 (FLAG epitope-tagged TR8, residues 33-615 of FIGS. 1A-C) (human); experiment: anti-FLAG co-immunoprecipitation of 35S-labeled TRAF from 293 lysates, PhosphorImager quantitation

| fold increase in binding relative to vector transfected cells [fold] | Molecule |
| --- | --- |
| 5 | in vitro translated 35S-labeled TRAF6 |
| 11 | in vitro translated 35S-labeled TRAF5 |
| 145 | in vitro translated 35S-labeled TRAF2 (protein, UniProt Q12933 2-501, looked up, species assumed, 35S-labeled) TNF receptor-associated factor 2: AAASVTPPGSLELLQPGFSKTLLGTKLEAKYLCSACRNVLRRPFQAQCGHRYCSFCLASILSSGPQNCAACVHEGIYEEGISILESSSAFPDNAARREVESLPAVCPSDGCTWKGTLKEYESCHEGRCPLMLTECPACKGLVRLGEKERHLEHECPERSLSCRHCRAPCCGADVKAHHEVCPKFPLTCDGCGKKKIPREKFQDHVKTCGKCRVPCRFHAIGCLETVEGEKQQEHEVQWLREHLAMLLSSVLEAKPLLGDQSHAGSELLQRCESLEKKTATFENIVCVLNREVERVAMTAEACSRQHRLDQDKIEALSSKVQQLERSIGLKDLAMADLEQKVLEMEASTYDGVFIWKISDFARKRQEAVAGRIPAIFSPAFYTSRYGYKMCLRIYLNGDGTGRGTHLSLFFVVMKGPNDALLRWPFNQKVTLMLLDQNNREHVIDAFRPDVTSSSFQRPVNDMNIASGCPLFCPVSKMEAKNSYVRDDAIFIKAIVDLTGL |
